Measurements from PMC8584343, “Probing the Structural Dynamics of the Activation Gate of KcsA Using Homo-FRET Measurements” (International Journal of Molecular Sciences, 2021).

B1: TMR-labeled G116C W26, 68, 87, 113F KcsA (full-length) (natural protein, S. lividans, UniProt P0A334 1-160, looked up)
chain: MPPMLSGLLARLVKLLLGRHGSALHFRAAGAATVLLVIVLLAGSYLAVLAERGAPGAQLITYPRALWFSVETATTVGYGDLYPVTLFGRLVAVVVMVAGITSFGLVTAALATFFVCREQERRGHFVRHSEKAAEEAYTRTTRALHERFDRLERMLDDNRR
modifications: tetramethylrhodamine-5-maleimide (TMR) conjugated to cysteine 116; final dye-to-protein molar ratio D:P 0.05 to 0.60, so not every subunit carries a dye
notes: KcsA potassium channel from S. lividans, full-length subunit, with four of the five Trp mutated to Phe (W67 left) and G116C for labelling; Homotetrameric channel; Plasmids pQE-60 and pQE-1 are named for G116C W67 and G116C WT; also called TMR-labeled G116C W67 KcsA; TMR conjugated G116C W67 KcsA; source: E. coli M15 (pRep4), purified (IMAC), labelled with tetramethylrhodamine-5-maleimide, …
B2: C-terminal truncated (Δ125) TMR-labeled G116C W67 KcsA (domain or fragment, S. lividans, UniProt P0A334 1-124, looked up)
chain: MPPMLSGLLARLVKLLLGRHGSALHFRAAGAATVLLVIVLLAGSYLAVLAERGAPGAQLITYPRALWFSVETATTVGYGDLYPVTLFGRLVAVVVMVAGITSFGLVTAALATFFVCREQERRGH
modifications: tetramethylrhodamine-5-maleimide (TMR) conjugated to cysteine 116; D:P = 0.60
notes: KcsA potassium channel from S. lividans after removal of the C-terminal domain (amino acids 125–160) by chymotrypsin; W67 background with G116C; The limit 124 follows from the stated removal of amino acids 125–160; If the His tag stood at the C-terminus it would be lost with the cleaved fragment; also called truncated protein; proteolytically cleaved TMR-labeled G116C W67 KcsA

Legend:
[1] = target: the molecule itself; test: SDS-PAGE; oligomeric status of the purified protein checked by SDS-PAGE (13.5%)
[2] = target: the molecule itself; test: FRET or BRET; homo-FRET among TMR dyes on C116 of different subunits, read by steady-state and time-resolved fluorescence anisotropy; detergent-solubilised protein, 6 µM (monomer based), 5 mM DDM, 200 mM KCl (also RbCl or NaCl), pH 3.5-7.0, 25 °C; D:P 0.05 to 0.60

Protein | stoichiometry N [1] | binding result [2]
B1 | 4 | 
B2 |  | binds
